The target of series [1] is GST (glutathione S-transferase) [GST: P08515].
Series [2] has as its target GST-KIAA0596CT (N-terminal GST fusion protein of human KIAA0596CT, the C-terminal region, amino acids 639 to 1217, of KIAA0596) [GST: P08515].
The target of series [3] is T1, GST-KIAA1491 complete (N-terminal GST-fusion protein of KIAA1491 complete).
T1 chain: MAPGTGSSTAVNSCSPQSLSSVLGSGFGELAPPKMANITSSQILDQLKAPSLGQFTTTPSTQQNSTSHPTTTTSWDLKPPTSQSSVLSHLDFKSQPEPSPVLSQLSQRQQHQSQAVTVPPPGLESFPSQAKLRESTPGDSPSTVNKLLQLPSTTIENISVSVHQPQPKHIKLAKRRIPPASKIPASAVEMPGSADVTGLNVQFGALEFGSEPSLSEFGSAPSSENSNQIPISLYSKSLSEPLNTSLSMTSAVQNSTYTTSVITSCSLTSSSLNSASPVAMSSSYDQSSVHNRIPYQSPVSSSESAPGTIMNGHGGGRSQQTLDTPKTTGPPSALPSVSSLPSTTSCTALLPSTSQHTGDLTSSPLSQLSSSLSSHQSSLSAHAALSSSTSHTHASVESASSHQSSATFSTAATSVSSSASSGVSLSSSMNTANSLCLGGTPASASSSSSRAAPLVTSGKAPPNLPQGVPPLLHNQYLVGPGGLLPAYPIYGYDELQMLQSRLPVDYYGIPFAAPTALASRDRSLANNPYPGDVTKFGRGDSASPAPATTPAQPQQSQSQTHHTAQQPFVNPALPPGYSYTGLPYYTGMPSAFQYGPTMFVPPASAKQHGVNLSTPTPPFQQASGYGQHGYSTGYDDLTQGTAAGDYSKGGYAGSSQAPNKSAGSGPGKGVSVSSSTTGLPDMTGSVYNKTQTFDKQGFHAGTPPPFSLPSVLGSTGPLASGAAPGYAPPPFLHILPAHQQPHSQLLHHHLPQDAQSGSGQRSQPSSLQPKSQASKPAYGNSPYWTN

The target in series [4] is T2, GST-BPL1 (N-terminal GST fusion protein of human BPL1, holocarboxylase synthetase).
T2 chain: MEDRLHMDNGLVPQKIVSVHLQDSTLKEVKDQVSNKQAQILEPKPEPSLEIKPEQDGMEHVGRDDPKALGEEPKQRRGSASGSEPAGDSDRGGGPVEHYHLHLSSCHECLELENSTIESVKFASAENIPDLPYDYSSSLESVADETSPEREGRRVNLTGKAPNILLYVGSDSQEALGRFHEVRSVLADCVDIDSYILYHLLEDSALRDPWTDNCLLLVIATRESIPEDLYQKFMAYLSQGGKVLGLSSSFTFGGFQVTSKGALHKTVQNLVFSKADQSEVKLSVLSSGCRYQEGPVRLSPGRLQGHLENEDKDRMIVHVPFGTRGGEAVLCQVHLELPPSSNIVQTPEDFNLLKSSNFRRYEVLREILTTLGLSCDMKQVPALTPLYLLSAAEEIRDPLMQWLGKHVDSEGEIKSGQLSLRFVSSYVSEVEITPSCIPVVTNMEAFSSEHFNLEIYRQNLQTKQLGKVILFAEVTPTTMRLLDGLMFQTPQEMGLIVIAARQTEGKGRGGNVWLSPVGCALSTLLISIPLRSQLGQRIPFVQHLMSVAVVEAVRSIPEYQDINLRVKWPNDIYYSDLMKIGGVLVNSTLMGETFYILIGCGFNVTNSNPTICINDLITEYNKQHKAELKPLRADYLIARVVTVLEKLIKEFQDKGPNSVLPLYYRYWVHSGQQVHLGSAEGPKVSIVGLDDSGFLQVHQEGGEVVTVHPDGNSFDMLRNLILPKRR

In series [5] the target is GST-BMAL1 (N-terminal GST fusion protein of human BMAL1; BMAL1b was used).
Chain of GST-BMAL1 (N-terminal GST fusion protein of human BMAL1; BMAL1b was used) (chain, as listed by the source): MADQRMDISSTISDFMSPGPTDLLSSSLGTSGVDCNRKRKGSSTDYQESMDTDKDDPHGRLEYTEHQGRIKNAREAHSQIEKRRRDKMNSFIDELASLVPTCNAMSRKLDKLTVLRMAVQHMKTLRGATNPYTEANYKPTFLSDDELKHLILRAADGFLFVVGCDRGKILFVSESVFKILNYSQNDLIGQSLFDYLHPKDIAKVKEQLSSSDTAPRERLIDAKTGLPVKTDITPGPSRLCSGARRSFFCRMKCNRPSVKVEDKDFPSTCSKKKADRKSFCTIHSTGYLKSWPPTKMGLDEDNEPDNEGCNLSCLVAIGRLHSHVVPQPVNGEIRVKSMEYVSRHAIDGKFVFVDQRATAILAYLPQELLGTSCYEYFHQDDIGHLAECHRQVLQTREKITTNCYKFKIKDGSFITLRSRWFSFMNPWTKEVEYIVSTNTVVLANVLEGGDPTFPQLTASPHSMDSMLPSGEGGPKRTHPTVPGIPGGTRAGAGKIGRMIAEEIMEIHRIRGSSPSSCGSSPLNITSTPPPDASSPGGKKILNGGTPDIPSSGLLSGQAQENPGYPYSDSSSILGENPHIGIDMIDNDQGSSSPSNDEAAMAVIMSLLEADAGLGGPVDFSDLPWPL

B1: His-JNK3 (activated human JNK3 (JNK3α1) with an N-terminal histidine-tag) (protein)
chain: MSLHFLYYCSEPTLDVKIAFCQGFDKQVDVSYIAKHYNMSKSKVDNQFYSVEVGDSTFTVLKRYQNLKPIGSGAQGIVCAAYDAVLDRNVAIKKLSRPFQNQTHAKRAYRELVLMKCVNHKNIISLLNVFTPQKTLEEFQDVYLVMELMDANLCQVIQMELDHERMSYLLYQMLCGIKHLHSAGIIHRDLKPSNIVVKSDCTLKILDFGLARTAGTSFMMTPYVVTRYYRAPEVILGMGYKENVDIWSVGCIMGEMVRHKILFPGRDYIDQWNKVIEQLGTPCPEFMKKLQPTVRNYVENRPKYAGLTFPKLFPDSLFPADSEHNKLKASQARDLLSKMLVIDPAKRISVDDALQHPYINVWYDPAEVEAPPPQIYDKQLDEREHTIEEWKELIYKEVMNSEEKTKNGVVKGQPSPSAQVQQ
In the case of B1, in series [1], the Relative Strength (%) of the phosphorylated GST-c-Jun (1-79) band, 1.0 µg added protein (none added = 100) came out at 92.7% and the Relative Strength (%) of the phosphorylated GST-c-Jun (1-79) band, 2.0 µg added protein (none added = 100) stood at 93.6%. In series [2], this protein gave a Relative Strength (%) of the phosphorylated GST-c-Jun (1-79) band, 1.0 µg added protein (none added = 100) of 70.6% and a Relative Strength (%) of the phosphorylated GST-c-Jun (1-79) band, 2.0 µg added protein (none added = 100) of 33.5%. In series [3], the Relative Strength (%) of the phosphorylated GST-c-Jun (1-79) band, 1.0 µg added protein (none added = 100) worked out at 71.5%; the Relative Strength (%) of the phosphorylated GST-c-Jun (1-79) band, 2.0 µg added protein (none added = 100) worked out at 67.1%; the “phosphorylation of GST-KIAA1491 complete by JNK3 (in vitro kinase assay, [γ-32P] ATP, autoradiography)” value was “GST-KIAA1491 complete were phosphorylated by JNK3 ... the phosphorylation was dependent on the dose of JNK3”. Moreover, in series [4], the Relative Strength (%) of the phosphorylated GST-c-Jun (1-79) band, 1.0 µg added protein (none added = 100) came to 81.6%; the Relative Strength (%) of the phosphorylated GST-c-Jun (1-79) band, 2.0 µg added protein (none added = 100) amounted to 59.7%; the “phosphorylation of GST-BPL1 by JNK3 (in vitro kinase assay, [γ-32P] ATP, autoradiography)” value is “The phosphorylation of GST-BPL1 by JNK3 was observed. Since the phosphorylation was dependent on the dose of JNK3”. Further, in series [5], the Relative Strength (%) of the phosphorylated GST-c-Jun (1-79) band, 1.0 µg added protein (none added = 100) is 15.3%; the Relative Strength (%) of the phosphorylated GST-c-Jun (1-79) band, 2.0 µg added protein (none added = 100) was found to be 4.7%; the “phosphorylation of GST-BMAL1 by JNK3 (in vitro kinase assay, [γ-32P] ATP, autoradiography)” value is listed as “the phosphorylation of GST-BMAL1 by JNK3 was observed ... the phosphorylation was dependent on the dose of JNK3”.
